Assay [1] has as its target T1, human CD30L (recombinant protein) (human, UniProt P32971 63-234).
T1 construct: also called rhCD30L; TNFSF8
T1 sequence: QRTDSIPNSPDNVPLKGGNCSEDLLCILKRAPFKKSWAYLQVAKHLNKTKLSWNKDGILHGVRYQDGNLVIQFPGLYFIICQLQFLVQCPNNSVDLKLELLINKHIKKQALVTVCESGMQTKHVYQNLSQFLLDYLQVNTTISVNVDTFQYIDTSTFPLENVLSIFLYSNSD
The assay is described as follows: Carterra, human CD30L.

The target of assay [2] is T2, human CD30L expressed on B16 cells (human, UniProt P32971 1-234).
T2 sequence (looked up): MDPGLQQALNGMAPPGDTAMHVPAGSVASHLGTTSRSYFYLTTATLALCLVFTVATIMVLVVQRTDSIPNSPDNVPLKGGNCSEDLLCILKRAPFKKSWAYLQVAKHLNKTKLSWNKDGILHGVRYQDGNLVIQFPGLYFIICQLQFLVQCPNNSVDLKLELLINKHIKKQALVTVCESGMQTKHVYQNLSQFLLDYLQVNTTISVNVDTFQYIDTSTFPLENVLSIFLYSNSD
As to the kind of experiment: cell-based or functional assay.

For assay [3], the target named is T3, cynomolgus CD30L expressed on HEK293 cells (cynomolgus, UniProt A0A7N9CVX7 1-234).
T3 sequence: T2 sequence (looked up) with A19T, M20T, G32E, L41F, V75I, K78R, I204V, I227V
The assay is described as follows: cell-based or functional assay.

Residue numbers refer to the chain shown, from its start.

The term Kd denotes a measure of binding affinity in units of concentration.

B1: anti-CD30L antibody clone 64 (antibody, V domains shown)
VH: EVQLVESGGGLVQPGGSLRLSCAASGFTFSNYAMTWVRQAPGKGLEWVSAISGFGGSTYYADSVKGRFTISRDNSKNTLYLQMNSLRAEDTAVYYCAKDHDYYAFDYWGQGTLVTVSS
VL: not shown
notes: Purified recombinant antibody
As to B1, in assay [1], the Kd is 1.57 nM.

B2: anti-CD30L antibody clone 65 (antibody, V domains shown)
VH: B1 VH with R19K, F54Y, D62A, Y80F, T115P
VL: not shown
notes: Purified recombinant antibody
Regarding B2, in assay [1], the Kd is 1.52 nM.

B3: anti-CD30L Reference 1 antibody (antibody, human IgG1, lambda, V domains shown)
VH: QVQLQESGPGLVKPSETLSLTCTVSGGSISSYIWSWIRQPAGKGLEWIGRIYASGNTNYNPSLKSRVTISVDTSKNQFSLKLSSMTAADTAVYYCARDYRVAGTYYYYYGLDVWGQGTTVTVSS
VL: QSALTQPASVSGSPGQSITISCTGTSSDVGVYDYVSWYQQHPGKAPKLMIYEVSNRPSGVSNRFSGSKSGNTASLTISGLQTEDEADYYCSSYTSRSTWVFGGGTKLTVLG
Take B3: the “Inhibition of IL-8 release in a dual cell assay (B16-huCD30L cells + K299 cells) IC50” value in assay [2] amounted to 1.61 nM. Moreover, in assay [3], the “Inhibition of IL-8 release in a dual cell assay (HEK293-cyCD30L cells + K299 cells) IC50” value turned out to be 0.79 nM.

B4: anti-CD30L antibody clone 1 (antibody, V domains shown)
VH: QVQLQESGPGLVKPSETLSLTCTVSGGSISGYYWSWIRQPPVKGLEWIGYIFYSGYTKYNPSLKSRVTISVDTSKNQFSLKLSSVTAADTAVYYCARDRWDFDYWGQGALVTVSS
VL: AIQMTQSPSYLSASVGDRVTIACRASQGIRNNLGWYQQKPGKAPKLLIYAESSLQSGVPSRFSGSGSGTDFTLTISSLQPEDFATYYCLQDFNYPYTFGQGTKLEIK
In the case of B4, the “Inhibition of IL-8 release in a dual cell assay (B16-huCD30L cells + K299 cells) IC50” value in assay [2] was found to be 1.43 nM. In addition, in assay [3], the “Inhibition of IL-8 release in a dual cell assay (HEK293-cyCD30L cells + K299 cells) IC50” value turned out to be 0.39 nM.

B5: anti-CD30L antibody clone 1 germlined (antibody, V domains shown)
VH: B4 VH with V42G, A109T
VL: B4 VL with Y10S, A22T
Take B5: the “Inhibition of IL-8 release in a dual cell assay (B16-huCD30L cells + K299 cells) IC50” value in assay [2] came out at 1.29 nM. Also, in assay [3], the “Inhibition of IL-8 release in a dual cell assay (HEK293-cyCD30L cells + K299 cells) IC50” value worked out at 0.43 nM.

B6: anti-CD30L antibody clone 63 (antibody, V domains shown)
VH: EVQLVESGGGLVQPGGSLRLSCAASGFMFSSYSMNWVRQAPGKGLEWVSYISSSSSTIYDADSVKGRFTISRDDAKNSLYLQMNSLRDEDTAVYYCTREAYPGYYYNYMDVWGKGTTVTVSS
VL: DIQMTQSPSSLSASVGDRVTITCRASQSISSRLAWYQQKPGKAPNLLIYKASNLESGVPSRFSGSGSGTEFTLTISSLQPDDFATYYCQQYNSYSRTFGQGTKVEIK
notes: Purified recombinant antibody
Turning to B6, in assay [1], the Kd stood at 1.85 nM.

B7: anti-CD30L antibody clone 2 (antibody, V domains shown)
VH: EVQLVESGGGLVQPGRSLRLSCAASGFNFDDYAMHWVRQAPGKGLEWVSGISWRSGNIGYAGSVKGRFTISRDNAKNSLYLQMNSLRPEDSALYYCAKDKGIGFNWNYEGFDYWGQGTLVTVSS
VL: DIQMTQSPSSLSASVGDRVTITCRASQGISNHLAWFQQKPGKAPKSLIYAASSLQSGVPSKFSGSGSGTDFTLTISSLQPEDFATYYCQQYVTYPLTFGGGTKVEIK
As for B7, the “Inhibition of IL-8 release in a dual cell assay (B16-huCD30L cells + K299 cells) IC50” value in assay [2] worked out at 0.81 nM. In assay [3], the “Inhibition of IL-8 release in a dual cell assay (HEK293-cyCD30L cells + K299 cells) IC50” value came to 0.31 nM.

B8: anti-CD30L antibody clone 80 (antibody, V domains shown)
VH: EVQLVESGGGLVQPGGSLRLSCEVSGFTFSSYDMHWVRQVTGTGLEWVSSIGIGGDTYYPGSVKGRFTISRENAKNSLYLQMNSLRGGDTGVYYCARGEWDLLWYFMDVWGKGTTVTVSS
VL: B7 VL with V15I, N31S, H32W, F36Y, S46L, K61R, Y91A, V92N, T93S, Y94F
notes: Purified recombinant antibody
With B8, the Kd in assay [1] came to 3.54 nM.

B9: anti-CD30L antibody clone 2 germlined (antibody, V domains shown)
VH: B7 VH with G62D, P88A, S91T
VL: B7 VL with K61R
With B9, in assay [2], the “Inhibition of IL-8 release in a dual cell assay (B16-huCD30L cells + K299 cells) IC50” value stood at 0.89 nM. Moreover, the “Inhibition of IL-8 release in a dual cell assay (HEK293-cyCD30L cells + K299 cells) IC50” value in assay [3] stood at 0.41 nM.

For the origin of these results see patent publication US20250340660A1 (published 2025).
